Measurements as given in PMC4643112, “Diversity of hydrolases from hydrothermal vent sediments of the Levante Bay, Vulcano Island (Aeolian archipelago) identified by activity-based metagenomics and biochemical characterization of new esterases and an arabinopyranosidase” (Applied Microbiology and Biotechnology, 2015).

Substrate: CCCC(=O)Oc1ccc([N+](=O)[O-])cc1
Assay: colorimetric p-nitrophenol release
Type: biochemical, Rhodothermus profundi
Conditions: 50 mM potassium phosphate pH 7.0, 0.1 % Triton X-100, standard assay, substrate varied 1-40 mM as printed

B1: LIPESV12_26 (Rhodothermus profundi) (protein)
chain: MPHPTIQTVDLAYRSYGTEGPPLLILHGLLGSSGNWHTLARNAFSPHFRVFALDLRGHGRSPHAHPIDYPTMAADVQAFMDRHHLESAHVLGHSMGGKVAMELALSAPERVRRLVVVDIAPRSYPARHRTILDALQAIDPARYANRQAIDQALATYVPEAPIRQFLLKNLLYNPATRRYTWQVDLDGLVRYYDRINAAITDGRQFTGPVLFVRGARSDYLTEADWPTIRQLFPDACLATIPEAGHWVHADAPEAFAHLVLAFLQEKSGCVSSSKS
notes: full length, 275 residues, His6-tagged (pET-46c Ek/LIC), E. coli BL21(DE3); primers (translated) start MPHPTIQ, end VSSSKS; catalytic S94, D218, H245
Km: 100 µM
